According to patent US20180292411A1:

Biological target: S100A9 (human) (UniProt P06702)
Experiment: cell-based or functional assay

S100A9 (human), sequence (P06702 whole entry): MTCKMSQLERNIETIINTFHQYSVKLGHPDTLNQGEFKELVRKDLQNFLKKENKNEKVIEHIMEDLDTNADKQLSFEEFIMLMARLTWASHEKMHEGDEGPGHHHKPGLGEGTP

colony-forming capacity of MDS BM-MNC (fold greater than controls): < 6.6
Substance: S100A9 high-affinity chimeric (CD33-IgG1) decoy receptor (from UniProt P20138 18-259) (Fc fusion)
